In article PMC11933065, “Characterization of FosA13, a novel fosfomycin glutathione transferase identified in a Morganella morganii isolate from poultry” (Frontiers in Cellular and Infection Microbiology, 2025):

Tested on: C[C@@H]1O[C@@H]1P(=O)(O)O
Assay: HPLC, initial rates, Michaelis-Menten fit
Type: biochemical, Morganella morganii
Settings: 10 mM GSH, 250 µM MnCl2, 100 mM KCl, 100 mM Tris-HCl, 37 °C, fosfomycin 0-800 µM, printed unit µM conflicts with printed kcat/Km (1.50 × 10^4 M^-1 s^-1), which implies mM

## FosA13 (Morganella morganii subsp. morganii KT)
  kcat: 6.43 ± 0.04 s⁻¹
